According to paper PMC4707092 (Journal of immunology (Baltimore, Md. : 1950), 2015):
Values belong to the binder of their own block, whether it stands above or below them.

Target: C3b (UniProt P01024 749-1663, most molecules attached to the chip surface via the thioester group)
Assay: SPR

- Kd: 709 nM
B1: miniFH (other)
chain: AGEDCNELPPRRNTEILTGSWSDQTYPEGTQAIYKCRPGYRSLGNVIMVCRKGEWVALNPLRKCQKRPCGHPGDTPFGTFTLTGGNVFEYGVKAVYTCNEGYQLLGEINYRECDTDGWTNDIPICEVVKCLPVTAPENGKIVSSAMEPDREYHFGQAVRFVCNSGYKIEGDEEMHCSDDGFWSKEKPKCVEISCKSPDVINGSPISQKIIYKENERFQYKCNMGYEYSERGDAVCTESGWRPLPSCEEGKCGPPPPIDNGDITSFPLSVYAPASSVEYQCQNLYQLEGNKRITCRNGQWSEPPKCLHPCVISREIMENYNIALRWTAKQKLYSRTGESVEFVCKRGYRLSSRSHTLRTTCWDGKLEYPTCAKR

- Kd: 27 nM
B2: midiFH (other)
chain: AGEDCNELPPRRNTEILTGSWSDQTYPEGTQAIYKCRPGYRSLGNVIMVCRKGEWVALNPLRKCQKRPCGHPGDTPFGTFTLTGGNVFEYGVKAVYTCNEGYQLLGEINYRECDTDGWTNDIPICEVVKCLPVTAPENGKIVSSAMEPDREYHFGQAVRFVCNSGYKIEGDEEMHCSDDGFWSKEKPKCVEISCKSPDVINGSPISQKIIYKENERFQYKCNMGYEYSERGDAVCTESGWRPLPSCEEGKCGPPPPIDNGDITSFPLSVYAPASSVEYQCQNLYQLEGNKRITCRNGQWSEPPKCLHPCVISREIMENYNIALRWTAKQKLYSRTGESVEFVCKRGYRLSSRSHTLRTTCWDGKLEYPTCAKREDCNELPPRRNTEILTGSWSDQTYPEGTQAIYKCRPGYRSLGNVIMVCRKGEWVALNPLRKCQKRPCGHPGDTPFGTFTLTGGNVFEYGVKAVYTCNEGYQLLGEINYRECDTDGWTNDIPICEVVKCLPVTAPENGKIVSSAMEPDREYHFGQAVRFVCNSGYKIEGDEEMHCSDDGFWSKEKPKCVEISCKSPDVINGSPISQKIIYKENERFQYKCNMGYEYSERGDAVCTESGWRPLPSCEEGKCGPPPPIDNGDITSFPLSVYAPASSVEYQCQNLYQLEGNKRITCRNGQWSEPPKCLHPCVISREIMENYNIALRWTAKQKLYSRTGESVEFVCKRGYRLSSRSHTLRTTCWDGKLEYPTCAKR
